The labels stand for the following.
B1: AL2p-7 (antibody, V domains shown)
VH: QVQLVQSGAEVKKPGSSVKVSCKASGYAFSLSWMNWVRQAPGQGLEWMGRIYPGDGDTNYAQKFRGRVTITADESTSTAYMELSSLRSEDTAVYYCARLLRNQPGESYAMDYWGQGTLVTVSS
VL: GVVMTQTPLSLSVTPGQPASISCRSSQSLIHSNGYTYLHWYLQKPGQSPQLLIYKVSNRRSGVPDRFSGSGSGTDFTLKISRVEAEDVGVYYCSQSTRVPYTFGQGTKLEIK
notes: Fab and IgG formats under one id
B2: AL2p-20 (antibody, V domains shown)
VH: B1 VH with L31S, S32H, Q62R, R65Q
VL: B1 VL with S25T, I30V, R60V
notes: as for B1
B3: AL2p-22 (antibody, V domains shown)
VH: B1 VH with L31S, S32H, Q62Y, R65Q
VL: B1 VL with Q27R, I30V
notes: as for B1
B4: AL2p-19 (antibody, V domains shown)
VH: B1 VH with L31S, S32H, Q62R, R65Q
VL: B1 VL with G1D, Q27R, I30V, R60V
notes: as for B1
B5: AL2p-27 (antibody, V domains shown)
VH: B1 VH with L31S, S32H, D55Q, R65Q
VL: B1 VL with Q27R, I30V, R60V
notes: as for B1
B6: AL2p-24 (antibody, V domains shown)
VH: B1 VH with L31S, S32H, D55G, R65Q
VL: B1 VL with Q27R, I30V, R60F
notes: as for B1
B7: AL2p-25 (antibody, V domains shown)
VH: B1 VH with L31S, S32H, D55G
VL: B1 VL with S25T, I30V, R60V
notes: as for B1
B8: AL2p-10 (antibody, V domains shown)
VH: B1 VH with L31S, S32D, R65Q
VL: B1 VL with I30V
notes: as for B1
B9: AL2p-18 (antibody, V domains shown)
VH: B1 VH with L31S, S32H, F64W, R65Q, E106S
VL: B1 VL with S25T, I30V, R60V
notes: as for B1
B10: AL2p-17 (antibody, V domains shown)
VH: B1 VH with L31S, S32H, F64R, R65Q
VL: B1 VL with G1D, Q27R, I30V, R60V
notes: as for B1
B11: AL2p-12 (antibody, V domains shown)
VH: B1 VH with L31S, S32H, Q62H, R65Q
VL: B1 VL with I30V
notes: as for B1
B12: AL2p-21 (antibody, V domains shown)
VH: B1 VH with L31S, S32H, Q62W, R65Q
VL: B1 VL with Q27S, I30V, R60K
notes: as for B1
B13: AL2p-11 (antibody, V domains shown)
VH: B1 VH with L31S, S32D, Q62R, R65Q
VL: B1 VL with G1D, Q27R, I30V, R60V
notes: as for B1
B14: AL2p-14 (antibody, V domains shown)
VH: B1 VH with L31S, S32H, R65Q
VL: B1 VL with Q27R, I30V, R60F
notes: as for B1
B15: AL2p-13 (antibody, V domains shown)
VH: B1 VH with L31S, S32H, R65K
VL: B1 VL
notes: Fab and IgG formats under one id; also called AL22-13
B16: AL2p-61 (antibody, IgG1, V domains shown)
VH: B1 VH with L31S, S32Q, D55E, Q62R, R65Q
VL: B1 VL with I30V, G34Q

The term Kd denotes the free concentration of one partner at which half of the binding sites on the other are occupied at equilibrium, for simple one-to-one binding.

Where a chain is given by its changes, count along the chain named.

For the first assay, the target named is T1, human TREM2 Fc fusion (entire TREM2 ECD; only one Fc arm fused to TREM2) (human, UniProt Q9NZC2 19-174).
T1 construct: also called huTREM2-Fc; recombinant hTREM2
T1 sequence: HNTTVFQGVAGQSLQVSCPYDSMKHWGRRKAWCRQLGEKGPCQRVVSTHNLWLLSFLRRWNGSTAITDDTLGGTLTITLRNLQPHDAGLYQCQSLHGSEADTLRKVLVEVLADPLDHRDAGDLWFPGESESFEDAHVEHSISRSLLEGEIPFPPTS
The experiment in a line: BLI, IgG, avid. Here is the method:
Briefly, IgGs were loaded on-line onto AHQ sensors, Sensors were equilibrated off-line in assay buffer for 30 minutes and then monitored on-line for 60 seconds for baseline establishment. For avid binding measurement, sensors with loaded IgGs were exposed to 100 nM antigen (human or cynomolgus monkey TREM2 Fe fusion using the entire TREM2 ECD; only one Fc arm was fused to TREM2) for 3 minutes, afterwards they were transferred to assay buffer for 3 minutes for off-rate measurement. Monovalent binding measurements were obtained by loading human TREM2 Fc fusion antigens to AHQ sensor and followed by exposure to 100 nM TREM2 antibody Fab. Kinetics data were fit using a 1:1 binding model in the data analysis software provided by ForteBio. Assay was run at room temperature (25° C.).
B1 came in with a Kd of 0.427 nM.

Regarding B2, the Kd amounted to 0.35 nM.

The molecule B3 had a Kd of 0.219 nM.

Consider B4, for which the Kd was 0.303 nM.

In the case of B5, the Kd was 0.274 nM.

B6: the Kd turned out to be 0.233 nM.

Molecule B7 gave a Kd of 0.22 nM.

For the molecule B8, the Kd worked out at 0.835 nM.

In the case of B9, the Kd came to 0.229 nM.

For the molecule B10, the affinity, expressed as Kd, was 0.255 nM.

In the case of B11, the affinity, expressed as Kd, was 0.514 nM.

As to B12, the Kd was 0.399 nM.

With B13, the Kd stood at 0.536 nM.

B14 showed a Kd of 0.315 nM.

Consider B15, for which the Kd amounted to 0.34 nM.

The target of the next assay is human TREM2/DAP12 fusion protein (human, UniProt O43914 41-113, limits assumed). Briefly: cell-based or functional assay.
Sequence of human TREM2/DAP12 fusion protein (O43914 other isoform, or with tags, fused parts or gaps limits assumed): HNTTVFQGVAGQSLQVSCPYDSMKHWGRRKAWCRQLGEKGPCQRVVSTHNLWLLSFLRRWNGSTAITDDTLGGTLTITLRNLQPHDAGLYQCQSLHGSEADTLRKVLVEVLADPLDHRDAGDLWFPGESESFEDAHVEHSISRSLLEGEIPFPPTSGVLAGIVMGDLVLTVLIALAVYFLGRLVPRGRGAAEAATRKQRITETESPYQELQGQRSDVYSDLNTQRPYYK
On to B1, for which the “Luciferase activation plate bound 33 nM IgG, FOC” value was found to be 18.9 FOC and the “Luciferase activation soluble 10 nM IgG, FOC” value turned out to be 2.35 FOC.

B2: the “Luciferase activation plate bound 33 nM IgG, FOC” value amounted to 22.4 FOC and the “Luciferase activation soluble 10 nM IgG, FOC” value came to 2.12 FOC.

As for B3, the “Luciferase activation plate bound 33 nM IgG, FOC” value amounted to 24.9 FOC and the “Luciferase activation soluble 10 nM IgG, FOC” value was determined as 1.75 FOC.

Consider B4, for which the “Luciferase activation plate bound 33 nM IgG, FOC” value is 25.9 FOC and the “Luciferase activation soluble 10 nM IgG, FOC” value was 2.06 FOC.

In the case of B5, the “Luciferase activation plate bound 33 nM IgG, FOC” value was determined as 24.4 FOC and the “Luciferase activation soluble 10 nM IgG, FOC” value came out at 2.06 FOC.

Regarding B6, the “Luciferase activation plate bound 33 nM IgG, FOC” value was found to be 24.1 FOC and the “Luciferase activation soluble 10 nM IgG, FOC” value was found to be 2.12 FOC.

With B7, the “Luciferase activation plate bound 33 nM IgG, FOC” value was found to be 22.3 FOC and the “Luciferase activation soluble 10 nM IgG, FOC” value stood at 2.35 FOC.

As for B8, the “Luciferase activation plate bound 33 nM IgG, FOC” value was determined as 4.63 FOC and the “Luciferase activation soluble 10 nM IgG, FOC” value came out at 1.6 FOC.

Regarding B9, the “Luciferase activation plate bound 33 nM IgG, FOC” value was 8.46 FOC and the “Luciferase activation soluble 10 nM IgG, FOC” value is 2.06 FOC.

B10: the “Luciferase activation plate bound 33 nM IgG, FOC” value amounted to 23.8 FOC and the “Luciferase activation soluble 10 nM IgG, FOC” value came to 2.13 FOC.

For B11, the “Luciferase activation plate bound 33 nM IgG, FOC” value was determined as 15.8 FOC and the “Luciferase activation soluble 10 nM IgG, FOC” value was determined as 1.96 FOC.

Consider B12, for which the “Luciferase activation plate bound 33 nM IgG, FOC” value worked out at 13.1 FOC and the “Luciferase activation soluble 10 nM IgG, FOC” value is 1.83 FOC.

On to B13, for which the “Luciferase activation plate bound 33 nM IgG, FOC” value came out at 23.6 FOC and the “Luciferase activation soluble 10 nM IgG, FOC” value stood at 1.71 FOC.

Turning to B14, the “Luciferase activation plate bound 33 nM IgG, FOC” value amounted to 27.1 FOC and the “Luciferase activation soluble 10 nM IgG, FOC” value is 1.79 FOC.

In the case of B15, the “Luciferase activation plate bound 33 nM IgG, FOC” value is 16.5 FOC and the “Luciferase activation soluble 10 nM IgG, FOC” value is 2.17 FOC.

A further assay addresses T2, human TREM2 expressed on cells (human, UniProt Q9NZC2 19-230).
T2 construct: BW5147.G.1.4 cells stably expressing human TREM2 together with Dap12, or endogenous TREM2 of primary human myeloid cells; also called huT2 BW; hTREM2 expressing cell line
T2 sequence: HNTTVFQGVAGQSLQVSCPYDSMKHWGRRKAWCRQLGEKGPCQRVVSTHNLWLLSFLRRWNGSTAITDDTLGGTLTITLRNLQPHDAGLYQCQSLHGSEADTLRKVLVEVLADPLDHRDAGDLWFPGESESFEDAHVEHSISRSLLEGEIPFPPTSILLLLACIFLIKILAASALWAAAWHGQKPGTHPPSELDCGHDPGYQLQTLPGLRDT
Briefly: FACS, hTREM2 BW cells. From the text: To examine cell binding of affinity matured anti-TREM2 antibodies, both primary human monocyte derived dendritic cells and recombinant, human TREM2 expressing cells were utilized. For the latter, BW5147.G.1.4 (ATCC® TIB48™) and HEK293T cells stably expressing human TREM2 together with Dap12 using viral infection were established. For primary human monocyte derived dendritic cells, human monocytes were isolated from whole blood using RosetteSep Human monocyte enrichment cocktail (Stemcell technologies) and Ficoll centrifugation per manufacturer protocols. After lysing red blood cells with ACK lysing buffer, monocytes were resuspended in complete media (RPMI, 10% FBS, Pen/Strep, L-glutamine, HEPES, non-essential amino acid, Sodium pyruvate) with 100 ng/ml human GM-CSF (hu-GMCSF) and, human IL-4 (hu-IL-4) to differentiate dendritic cells for 6 days.
Cells were harvested by trypsinization (Hek293T) or scraping (BW and dendritic cells), washed in PBS, counted and plated on 96-well U bottom plates at […] cells/well. The plates were spun at 1,400 rpm for 3 minutes and primary TREM2 or control antibodies were added in FACS buffer (PBS+2% FBS) and incubated on ice for one hour. Cells were subsequently centrifuged as before and washed thrice with FACS buffer. Cells were then incubated with anti-human PE conjugated secondary antibody (BD Biosciences) in FACS buffer for 30 minutes on ice. Cells were again washed thrice with FACS buffer and analyzed on a BD FACS Canto or an Intellicyt Flow Cytometer. Binding was measured as mean fluorescence intensity in the APC channel.
Molecule B1 showed a Kd of 1.6 nM.

As for B2, the Kd turned out to be 1.2 nM.

Molecule B3 yielded a Kd of 1.5 nM.

B4 came in with a Kd of 1.4 nM.

In the case of B5, the Kd was 1.5 nM.

On to B6, for which the Kd was determined as 1.7 nM.

B7 had a Kd of 1.7 nM.

In the case of B8, the Kd is 3.1 nM.

In turn, B9 displayed a Kd of 1.3 nM.

For B10, the Kd came to 1.4 nM.

With B11, the Kd was 1.8 nM.

In turn, B12 came in with a Kd of 1.5 nM.

B13 registered a Kd of 2.4 nM.

Regarding B14, the affinity, expressed as Kd, was 2.1 nM.

Molecule B15 had a Kd of 1.5 nM.

The target of the next assay is T3, cynomolgus monkey TREM2 Fc fusion (entire TREM2 ECD; only one Fc arm fused to TREM2) (cynomolgus monkey, UniProt Q9NZC2 19-174 (human entry)).
T3 construct: also called cyno TREM2-Fc
T3 chain: T1 sequence with A10E, W60R, L89F, F125V
The experiment in a line: BLI, Fab, monovalent.
In turn, B1 showed a Kd of 8.95 nM.

Turning to B2, the Kd amounted to 4.72 nM.

B3 gave a Kd of 1.28 nM.

As to B4, the Kd stood at 4.01 nM.

In turn, B5 had a Kd of 1.82 nM.

The molecule B6 came in with a Kd of 1.63 nM.

B7 showed a Kd of 1.76 nM.

As to B16, the Kd was determined as 3.84 nM.

In the case of B8, the Kd was 27.7 nM.

B9 had a Kd of 2.73 nM.

In turn, B10 gave a Kd of 4.62 nM.

On to B11, for which the Kd worked out at 5.25 nM.

Turning to B12, the Kd was found to be 3.84 nM.

As to B13, binding was characterised by a dissociation constant (Kd) of 10.2 nM.

As for B14, the Kd amounted to 4.66 nM.

Consider B15, for which the Kd was found to be 4.93 nM.

The target of the next assay is T1, human TREM2 Fc fusion (entire TREM2 …). The experiment in a line: BLI, Fab, monovalent. In general terms: Biolayer interferometry detects binding as a change in optical thickness at a sensor tip.
B1 showed a Kd of 8.38 nM.

For B2, the Kd was 4.73 nM.

For B3, binding was put at a Kd of 1.58 nM.

Turning to B4, the Kd stood at 4.02 nM.

With B5, binding was characterised by a dissociation constant (Kd) of 1.99 nM.

Molecule B6 showed a Kd of 2.1 nM.

For B7, binding was characterised by a dissociation constant (Kd) of 2.34 nM.

As for B16, binding was put at a Kd of 3730 nM.

The molecule B8 showed a Kd of 18.5 nM.

B9 registered a Kd of 3.17 nM.

In the case of B10, the Kd turned out to be 4.83 nM.

With B11, binding was put at a Kd of 5.86 nM.

Molecule B12 displayed a dissociation constant (Kd) of 4.15 nM.

With B13, the Kd is 9.83 nM.

Regarding B14, the Kd came to 4.74 nM.

Molecule B15 gave a Kd of 4.8 nM.

Source of the values: US20200317776A1 (published 2020).
